Results published in US20240034792A1 (HARBOUR BIOMED SHANGHAI, published 2024).

Assays:
[1] = target: T1, Cynomolgus monkey PD-1 expressed on CHO-K1 cells (CHO-K1/cyno PD-1) (cynomolgus monkey, UniProt B0LAJ3 25-288); experiment: FACS, CHO-K1/cyno PD-1 cells
T1 construct: also called CHO-K1 cells overexpressing cynomolgus monkey PD-1
Protocol: (§1) In order to investigate the in vitro binding activity of the PD-1 antigen-binding proteins to human/cynomolgus monkey PD-1, the binding assay at the cellular level was performed using a CHO-K1 cell strain overexpressing human or cynomolgus monkey PD-1 (CHO-K1/hPD-1 or CHO-K1/cyno PD-1, from GenScript). Briefly, the CHO-K1-hPD-1 cells were digested and resuspended in an F-12K complete medium, and the cell density was adjusted to 1×10⁶ cells/mL. The cells were seeded in a 96-well V-bottom plate (Corning, Cat#3894) at 100 μL/well, followed by the addition of the test antigen-binding proteins with concentrations 2-fold of final concentrations obtained by 5-fold gradient dilution were each added at 100 μL/well. The mixtures were well mixed. The maximum final concentration of the antigen-binding proteins was 100 nM or 300 nM. A total of 8-11 concentrations were set. hIgG was used as a control. The cells were incubated at 4° C. for 1 h away from light. Thereafter, the cells in each well were rinsed twice with 100 μL of pre-cooled PBS, and centrifuged at 500 g at 4° C. for 5 min, and then the supernatant was discarded. Then 100 μL of a fluorescent secondary antibody (goat anti-human IgG (H+L) secondary antibody, Alexa Fluor® 488 conjugate, Invitrogen, Cat #A11013, 1:1000) was added to each well. The plate was incubated away from light at 4° C. for 30 min. The cells in each well were rinsed twice with 200 μL of pre-cooled PBS, and centrifuged at 500 g at 4° C. for 5 min, and then the supernatant was discarded. Finally, the cells in each well were resuspended in 200 μL of pre-cooled PBS, and the fluorescence signal values were read using a BD FACS CANTOII.

[2] = target: T2, Cynomolgus monkey PD-1-His protein (AcroBiosystems, # PD1-05223) (cynomolgus monkey, UniProt B0LAJ3 25-170); experiment: ELISA, plate-coated cynomolgus monkey PD-1-His
T2 construct: Bought reagent, coated on the ELISA plate; also called cynomolgus monkey PD-1 protein
Protocol: Cynomolgus monkey PD-1-His protein (AcroBiosystems, # PD1-05223) was diluted to 2 μg/mL with PBS, added to a 96-well plate (Corning, #9018) at 100 μL/well, and incubated at 4° C. overnight. After the liquid was discarded, the plate was washed 3 times with PBST, blocked by adding 250 μL of 2% BSA, and incubated at room temperature for 1 h. The blocking buffer was discarded, and the plate was washed 3 times with PBST buffer (pH 7.4, containing 0.05% Tween-20). The test antigen-binding protein was diluted to 5 μg/mL, and added at 100 μL/well. The plate was incubated at 37° C. for 1 h. After the plate was washed 3 times with PBST buffer (pH 7.4, containing 0.05% Tween-20), a 4000-fold diluted goat anti-human HRP secondary antibody (Invitrogen, #A18805) was added. The plate was incubated at 37° C. for 1 h. After the plate was washed, TMB (Biopanda, # TMB-S-003) was added at 100 μL/well. The plate was left away from light at room temperature for 5 min. The reactions were terminated by adding 50 μL of stop buffer (BBI life sciences, #E661006-0200) to each well, and the absorbance values at 450 nm (OD450) were measured using a microplate reader (PerkinElemer, #Enspire).

[3] = target: T3, Human PD-1 expressed on CHO-K1 cells (CHO-K1/hPD-1) (human, UniProt Q15116 25-288); experiment: FACS, CHO-K1/hPD-1 cells
T3 construct: whole, on cells; also called CHO-K1 cells overexpressing human PD-1
Protocol: as §1

[4] = target: T4, Human PD-1-His protein (ACROBiosystems, # PD1-H5221) (human, UniProt Q15116 25-167); experiment: ELISA, plate-coated human PD-1-His
T4 construct: Bought reagent, coated on the ELISA plate; also called human PD-1 protein; human PD-1 antigen; not shown: His tag
Protocol: Human PD-1-His protein (ACROBiosystems, # PD1-H5221) was diluted to 2 μg/mL with PBS, added to a 96-well plate (Corning, cat#9018) at 100 μL/well, and incubated at 4° C. overnight. After the liquid was discarded, the plate was washed 3 times with PBST buffer (pH 7.4, containing 0.05% Tween-20), and 250 μL of 2% BSA blocking buffer was added. The plate was incubated at 37° C. for 1 h. The blocking buffer was discarded, and the plate was washed 3 times with PBST buffer (pH 7.4, containing 0.05% Tween-20). The test antigen-binding protein was 5-fold diluted in sequence at an initial concentration of 100 nM for a total of 8-10 concentration gradients, and added at 100 μL/well. The plate was incubated at 37° C. for 1 h. An isotype antibody was taken as a control. After the plate was washed 3 times with PBST buffer (pH 7.4, containing 0.05% Tween-20), a 4000-fold diluted goat anti-human HRP secondary antibody (Invitrogen, #A18805) was added. The plate was incubated away from light at 37° C. for 1 h. After the plate was washed 3 times with PBST buffer (pH 7.4, containing 0.05% Tween-20), TMB (Biopanda, # TMB-S-003) was added at 100 μL/well. The plate was left away from light at room temperature for about 5 min. The reactions were terminated by adding 50 μL of stop buffer (BBI life sciences, #E661006-0200) to each well, and the absorbance values at 450 nm (OD450) were measured using a microplate reader (PerkinElemer, #Enspire). The half maximal effective concentration (EC₅₀) was calculated from the measurement results.

[5] = target: T3, Human PD-1 expressed on CHO-K1 cells …; experiment: FACS blocking of biotin-labeled human PD-L1 binding to CHO-K1-hPD-1 cells
Protocol: (§2) Briefly, the CHO-K1-hPD-1 cells were digested and resuspended in an F-12K complete medium, and the cell density was adjusted to 1×10⁶ cells/mL. The cells were seeded in a 96-well V-bottom plate (Corning, Cat#3894) at 100 μL/well, followed by the addition of the test antigen-binding proteins with concentrations 2-fold of final concentrations obtained by 3-fold or 5-fold gradient dilution were each added at 100 μL/well. The mixtures were well mixed. The maximum final concentration of the antigen-binding proteins was 100 nM or 300 nM. A total of 8 concentrations were set. hIgG was used as a control. The cells were incubated at 4° C. for 1 h away from light. […] The cells were incubated at 4° C. away from light for 30 min. The cells in each well were rinsed twice with 100 μL of pre-cooled PBS, and centrifuged at 500 g at 4° C. for 5 min, and then the supernatant was discarded. A fluorescent secondary antibody (PE Streptavidin, BD, Cat# 554061, 1:200) was added at 100 μL/well, and the cells were incubated at 4° C. away from light for 30 min. The cells in each well were rinsed twice with 200 μL of pre-cooled PBS, and centrifuged at 500 g at 4° C. for 5 min, and then the supernatant was discarded. Finally, the cells in each well were resuspended in 200 μL of pre-cooled PBS, the fluorescence signal values were read using a BD FACS CANTOII, and the IC₅₀ values were calculated.

[6] = target: T3, Human PD-1 expressed on CHO-K1 cells …; experiment: FACS blocking of biotin-labeled human PD-L2 binding to CHO-K1-hPD-1 cells
Protocol: as §2

T1 sequence (B0LAJ3 entry or part of it limits assumed): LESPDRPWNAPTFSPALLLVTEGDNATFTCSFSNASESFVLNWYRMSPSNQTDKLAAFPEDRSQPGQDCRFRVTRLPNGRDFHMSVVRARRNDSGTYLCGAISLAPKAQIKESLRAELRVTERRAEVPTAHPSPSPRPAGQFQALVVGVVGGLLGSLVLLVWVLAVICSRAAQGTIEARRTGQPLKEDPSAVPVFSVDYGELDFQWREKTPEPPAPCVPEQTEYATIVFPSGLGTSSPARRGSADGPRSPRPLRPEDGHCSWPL
T4 sequence (Q15116 25-167 limits assumed): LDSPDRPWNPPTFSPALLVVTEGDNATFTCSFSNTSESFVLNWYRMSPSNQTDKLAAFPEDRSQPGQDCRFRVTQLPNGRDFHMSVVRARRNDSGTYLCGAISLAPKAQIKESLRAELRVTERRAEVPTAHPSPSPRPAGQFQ
T2 sequence (B0LAJ3 entry or part of it limits assumed): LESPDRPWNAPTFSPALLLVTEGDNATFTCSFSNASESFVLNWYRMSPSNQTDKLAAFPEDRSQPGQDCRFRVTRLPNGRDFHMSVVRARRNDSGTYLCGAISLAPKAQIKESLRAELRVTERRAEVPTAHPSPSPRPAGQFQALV
T3 sequence (Q15116 25-288): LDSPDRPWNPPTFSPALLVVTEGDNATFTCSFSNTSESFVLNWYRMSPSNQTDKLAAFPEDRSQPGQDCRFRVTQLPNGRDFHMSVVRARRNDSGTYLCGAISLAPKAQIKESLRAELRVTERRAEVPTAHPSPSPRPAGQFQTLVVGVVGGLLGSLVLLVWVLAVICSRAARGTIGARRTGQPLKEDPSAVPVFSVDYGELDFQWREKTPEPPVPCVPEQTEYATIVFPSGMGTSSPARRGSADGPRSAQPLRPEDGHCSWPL

Row | Binder | EC50 [1] [nM] | MFI Maximum [1] | EC50 [2] [nM] | OD Maximum [2] | EC50 [3] [nM] | MFI Maximum [3] | EC50 [4] [nM] | OD Maximum [4] | IC50 [5] [nM] | Maximum inhibition rate (%) [5] [%] | IC50 [6] [nM] | Maximum inhibition rate (%) [6] [%]
1 | PR000150 (pembrolizumab analog) (antibody, human IgG4 S228P, kappa, V domains shown, Anti-PD-1 positive control; also called positive control antibody pembrolizumab) VH: QVQLVQSGVEVKKPGASVKVSCKASGYTFTNYYMYWVRQAPGQGLEWMGGINPSNGGTNFNEKFKNRVTLTTDSSTTTAYMELKSLQFDDTAVYYCARRDYRFDMGFDYWGQGTTVTVSS VL: EIVLTQSPATLSLSPGERATLSCRASKGVSTSGYSYLHWYQQKPGQAPRLLIYLASYLESGVPARFSGSGSGTDFTLTISSLEPEDFAVYYCQHSRDLPLTFGGGTKVEIKR | 0.998 | 19100 | 0.039 | 2.86 |  |  |  |  |  |  |  | 
2 | PR002476 (antibody, human IgG1, V domains shown, Heavy-chain-only antibody (HCAb), human IgG1 Fc; two heavy chains, no light chain; also called R4004P547H11) VH: EVQLVETGGGLIQPGGSLRLSCAASGFNVSSHYMSWVRQAPGKGLEWVSIIHSGGSTYYADSVKGRFTISRDNSKNRLYLQMNSLRAEDTAVYYCARATAVAEKNGYNYPFNYWGQGTLVTVSS |  |  | 0.366 | 2.7 | 12.7 | 1.02e+06 | 0.171 | 2.92 | 10.3 | 91.3 |  | 
3 | PR000675 (antibody, human IgG4 S228P, kappa, V domains shown, Fully human recombinant H2L2 antibody, human IgG4, kappa light chain; also called 4004_19G8F2) VH: EVQLLESGGGLVQPGGSLRLSCVDSGFTFSSYAMTWVRQAPGKGLEWVSGISGSGYSTYYADSVKGRFTISRDNSKKTLYLQMNSLRAEDTAVYYCAELSLDYWGQGTLVTVSS VL: EIVLTQSPATLSLSPGERATLSCRASQSVSRYLAWYQQKPGQAPRLLMHDAANRATGLPARFNGSGSGTDFTLTISSLEPEDFAVYYCQQRNNWPLTFGGGTKVEIKR | 6.91 | 36800 |  |  | 7.91 | 2.29e+06 | 0.113 | 3.31 | 12.4 | 72 | 19.7 | 59.9

Results, then the binder that gave them:

Row | EC50 [1] [nM] | MFI Maximum [1] | EC50 [2] [nM] | OD Maximum [2] | EC50 [3] [nM] | MFI Maximum [3] | EC50 [4] [nM] | OD Maximum [4] | IC50 [5] [nM] | Maximum inhibition rate (%) [5] [%] | IC50 [6] [nM] | Maximum inhibition rate (%) [6] [%] | Binder
4 |  |  | 0.345 | 2.89 | 13.9 | 1.08e+06 | 0.189 | 2.97 | 8.91 | 92.2 |  |  | PR002474 (antibody, human IgG1, V domains shown, Heavy-chain-only antibody (HCAb), human IgG1 Fc; two heavy chains, no light chain; also called R4004P547D3) VH: EVQLVETGGGLIQPGGSLRLSCAASGFNVSSHYMSWVRQAPGKGLEWVSIIHSGGSTYYADSVKGRFTISRDNSKNRLYLQMNSLRADDTAVYYCARATAVAEKNGYNYPFNYWGQGTLVTVSS
5 |  |  | 0.252 | 2.88 | 17 | 1.05e+06 | 0.152 | 2.85 | 16.2 | 96.2 |  |  | PR002479 (antibody, human IgG1, V domains shown, Heavy-chain-only antibody (HCAb), human IgG1 Fc; two heavy chains, no light chain; also called R4004P551D6) VH: EVQLVETGGGLIQPGGSLRLSCAASGFNVSSHYMSWVRQAPGKGLEWVSIIHSGGSTYYADSVKGRFTISRDNSKNRLYLQMNSLRAEDTAVYYCARATAVAEENGYNYPFNYWGQGTLVTVSS
6 | 2.35 | 41200 |  |  | 1.94 | 2.35e+06 | 0.074 | 3.24 | 0.769 | 66.7 | 1.83 | 92.7 | PR000674 (antibody, human IgG4 S228P, kappa, V domains shown, Fully human recombinant H2L2 antibody, human IgG4, kappa light chain; also called 4004_12H9C1) VH: QVQLVESGGGVVQPGKSLRLSCTVSGLTFSDNGMHWVRQAPGRGLEWMSVIWYDGSKKYYADSVKGRFTISRDNSKNTLYLQMNNMRVEDTAVYYCATNSDYWGQGTLVTVSS VL: EIVLTQSPATLSLSPGERATLSCRASQSVSSYLAWYQQKPGQAPRLLIYDTSKRATGIPARFSGSGSGTDFTLTISSLEPEDFAVYYCQQHNNWIFTFGPGTKVDIKR
